Data taken from patent US20100297101A1 (Scripps Research, published 2010).
Bridges are numbered along the chain shown (N, C = ends). Where no end group is shown, it is not given here.

Legend:
[1] = target: human integrin αIIbβ3 (purified, Enzyme Research Laboratories) (human) (UniProt P08514); test: competitive ELISA: inhibition of biotinylated human fibrinogen binding to immobilised human integrin αIIbβ3
[2] = target: native integrin αIIbβ3 expressed on the surface of human platelets (human) (UniProt P08514); test: cell-based or functional assay
[3] = target: T1, human integrin αIIbβ3 (purified, Enzyme Research Laboratories) (human, UniProt P08514 32-1039; P05106 27-788); test: competitive ELISA: inhibition of biotinylated fibrinogen binding to immobilised integrin αIIbβ3
T1 construct: Bought protein, coated on ELISA plates or used in solution; also called integrin αIIββ3; GPIIb/IIIa

Fab abciximab (ReoPro), sequence (VH): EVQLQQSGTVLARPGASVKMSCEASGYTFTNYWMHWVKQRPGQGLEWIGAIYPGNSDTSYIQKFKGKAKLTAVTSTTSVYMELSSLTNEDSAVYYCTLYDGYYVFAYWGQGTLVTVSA
Fab abciximab (ReoPro), sequence (VL): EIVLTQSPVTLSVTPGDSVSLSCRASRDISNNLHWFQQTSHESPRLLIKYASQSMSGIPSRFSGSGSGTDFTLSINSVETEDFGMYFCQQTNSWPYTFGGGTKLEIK

Molecule: Fab abciximab (ReoPro)
- IC50 [1]: 90 nM
- EC50, required concentration for 50% inhibition in a human platelet aggregation assay [2]: 45 nM

Molecule: VWCRADRRC (disulfide 3-9 (inferred); not fully specified) [cyclic peptide VWCRADRRC]
- IC50 [3]: 1200 nM

Molecule: VVCRADRRC (disulfide 3-9 (inferred), Synthetic nonapeptide (Peptron)) [cyclic peptide VVCRADRRC]
- IC50 [3]: 11000 nM

Molecule: VWCRADKRC (disulfide 3-9 (inferred)) [cyclic peptide VWCRADKRC]
- IC50 [3]: 4200 nM
